Source: US20220372154A1 (APEXIGEN, published 2022)

What was measured:
[1] = target: T1, human TNFR2 expressed on cells (human, UniProt P20333 23-461); assay: cell-based or functional assay
T1 sequence (looked up): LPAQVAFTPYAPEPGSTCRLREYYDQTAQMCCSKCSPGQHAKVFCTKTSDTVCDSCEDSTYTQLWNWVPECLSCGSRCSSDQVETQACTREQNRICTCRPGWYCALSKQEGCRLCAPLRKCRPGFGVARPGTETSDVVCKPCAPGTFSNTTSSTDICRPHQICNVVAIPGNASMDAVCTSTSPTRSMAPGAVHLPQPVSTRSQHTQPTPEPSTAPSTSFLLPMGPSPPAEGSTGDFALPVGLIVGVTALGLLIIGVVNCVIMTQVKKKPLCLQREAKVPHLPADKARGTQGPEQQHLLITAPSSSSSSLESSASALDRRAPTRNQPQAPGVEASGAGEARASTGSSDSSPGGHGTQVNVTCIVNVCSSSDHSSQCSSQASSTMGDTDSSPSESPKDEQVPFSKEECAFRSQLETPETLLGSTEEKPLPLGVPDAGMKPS

[2] = target: T2, cynomolgus TNFR2-His tagged protein (cynomolgus, UniProt A0A2K5VET2 132-366); assay: ELISA, cynomolgus TNFR2
T2 construct: also called Cyno TNFR2; cynomolgus TNFR2 protein; not shown: His tag
T2 sequence: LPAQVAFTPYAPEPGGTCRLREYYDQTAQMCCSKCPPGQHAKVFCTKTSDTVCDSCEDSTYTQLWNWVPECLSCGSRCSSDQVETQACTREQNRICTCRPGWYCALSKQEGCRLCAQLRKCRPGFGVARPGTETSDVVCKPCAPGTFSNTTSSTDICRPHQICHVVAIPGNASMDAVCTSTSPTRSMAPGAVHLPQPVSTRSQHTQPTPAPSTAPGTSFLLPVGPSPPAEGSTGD

[3] = target: T3, human TNFR2-His tagged protein (soluble) (human, UniProt P20333 23-257); assay: ELISA, soluble human TNFR2
T3 construct: also called hTNFR2 (soluble); soluble TNFR2-His; not shown: His tag
T3 sequence (looked up): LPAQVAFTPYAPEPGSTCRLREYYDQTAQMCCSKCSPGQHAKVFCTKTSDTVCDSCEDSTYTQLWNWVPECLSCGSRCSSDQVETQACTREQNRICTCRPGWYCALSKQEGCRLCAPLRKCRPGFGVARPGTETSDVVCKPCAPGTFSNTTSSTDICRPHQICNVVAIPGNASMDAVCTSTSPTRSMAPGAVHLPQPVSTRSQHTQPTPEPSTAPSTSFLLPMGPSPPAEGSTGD

[4] = target: T4, TNFR2 (as used in the Octet measurement) (UniProt P20333 23-257, limits assumed); assay: Octet (BLI), monovalent binding
T4 construct: Probably human soluble TNFR2; the legend says only TNFR2
T4 sequence (looked up): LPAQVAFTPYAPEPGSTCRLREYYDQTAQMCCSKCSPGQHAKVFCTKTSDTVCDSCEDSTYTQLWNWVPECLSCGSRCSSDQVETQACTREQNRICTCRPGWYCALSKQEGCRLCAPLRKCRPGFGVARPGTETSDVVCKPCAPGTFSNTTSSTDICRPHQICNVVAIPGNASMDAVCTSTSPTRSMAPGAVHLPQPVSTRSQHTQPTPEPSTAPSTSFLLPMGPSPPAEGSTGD

[5] = target: T5, TNFR-Fc (UniProt P20333 23-257, limits assumed); assay: TNF-α blocking ELISA (soluble)
T5 construct: Printed only as TNFR-Fc; not shown: Fc part
T5 sequence (looked up): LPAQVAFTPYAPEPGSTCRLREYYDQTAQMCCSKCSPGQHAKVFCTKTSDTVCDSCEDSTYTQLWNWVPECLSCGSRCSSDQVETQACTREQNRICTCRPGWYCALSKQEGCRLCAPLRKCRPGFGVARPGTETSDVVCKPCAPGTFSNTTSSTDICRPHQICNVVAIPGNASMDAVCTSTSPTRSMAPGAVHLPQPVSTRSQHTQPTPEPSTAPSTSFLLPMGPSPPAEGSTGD

[6] = target: T6, death receptor 6 (DR6) (UniProt O75509 42-349, limits assumed); assay: ELISA on coated DR6, OD 650 nm
T6 sequence (looked up): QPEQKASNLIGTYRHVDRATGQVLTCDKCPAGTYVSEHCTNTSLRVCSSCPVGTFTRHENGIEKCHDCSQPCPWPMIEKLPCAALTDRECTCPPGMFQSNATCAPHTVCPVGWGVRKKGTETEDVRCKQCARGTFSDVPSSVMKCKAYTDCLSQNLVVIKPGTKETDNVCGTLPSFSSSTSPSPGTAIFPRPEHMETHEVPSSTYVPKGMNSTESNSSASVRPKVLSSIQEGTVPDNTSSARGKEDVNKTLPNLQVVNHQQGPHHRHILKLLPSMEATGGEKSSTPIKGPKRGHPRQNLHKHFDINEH
Procedure: (§1) To test binding to TNFR family members, target proteins were coated on ELISA plates at 1 μg/mL at 4° C. overnight. Plates were washed, blocked, and antibodies were added at indicated concentrations for 1 hour at RT. Positive control antibodies for each protein were used at ˜1 ug/mL. Antibodies were washed and detected with anti-human IgG HRP for 1 hour. Assay was developed using TMB substrate for 10 minutes. For cell-binding, human CD4+ T cells purified from buffy coats were cultured in flat-bottom plates with anti-CD3/CD28 for 24 hours. Cells were harvested and stained for viability, CD4, CD25 and FOXP3. Test antibody staining was detected using anti-human IgG APC. Binding titration of test antibodies was evaluated on CD4+CD25hiFOXP3+ regulatory T cells and plotted as percent binding.

[7] = target: T7, osteoprotegerin (OPG) (UniProt O00300 22-401, limits assumed); assay: ELISA on coated OPG, OD 650 nm
T7 sequence (looked up): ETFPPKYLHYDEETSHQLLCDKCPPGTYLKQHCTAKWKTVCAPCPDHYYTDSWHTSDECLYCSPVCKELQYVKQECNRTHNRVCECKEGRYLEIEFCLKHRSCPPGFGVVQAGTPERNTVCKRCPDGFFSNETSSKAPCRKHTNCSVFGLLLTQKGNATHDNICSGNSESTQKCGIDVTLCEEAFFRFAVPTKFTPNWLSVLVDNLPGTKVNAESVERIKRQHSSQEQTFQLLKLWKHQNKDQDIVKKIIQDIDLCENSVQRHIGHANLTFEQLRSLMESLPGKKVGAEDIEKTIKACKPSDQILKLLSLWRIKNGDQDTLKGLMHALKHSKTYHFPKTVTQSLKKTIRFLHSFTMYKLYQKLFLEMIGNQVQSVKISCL
Procedure: as §1

[8] = target: T1, human TNFR2 expressed on cells; assay: flow cytometry, cell-expressed human TNFR2
[9] = target: T1, human TNFR2 expressed on cells; assay: cell binding on TNFR2-overexpressing (OE) cells
[10] = target: T2, cynomolgus TNFR2-His tagged protein; assay: ELISA on coated cynoTNFR2-His, OD 450 nm
[11] = target: T1, human TNFR2 expressed on cells; assay: flow cytometry on cells expressing human TNFR2, MFI median
[12] = target: T1, human TNFR2 expressed on cells; assay: Primary Cell Affinity; binding titration on activated human Tregs, flow cytometry
Procedure: as §1

ADCC EC50 (reporter line) [1]: 1.14 nM
ADCP EC50 [1]: 0.71 nM
EC50 [2]: 0.123 nM
EC50 [3]: 0.159 nM
koff [4]: 0.000553 s⁻¹
kon [4]: 358000 M⁻¹ s⁻¹
IC50 [5]: 1.96 nM
binding result [7]: no binding (tested: about 67 nM)
EC50 [8]: 0.242 nM
Kd [9]: 0.12 nM
EC50 (read off the curve) [10]: ~0.1 nM
EC50 (read off the curve) [11]: ~0.3 nM
Kd [12]: 0.047 nM
B1: humanized antibody h600-25-71 (antibody, V domains shown)
VH: EVQLVESGGGLVQPGGSLRLSCAASGIDLSSYAMGWVRQAPGKGLEWVGDISTSGNAYYATWVKGRFTISRDNSKNTLYLQMNSLRAEDTAVYYCARADYGGETYAFDPWGQGTLVTVSS
VL: DIQMTQSPSSLSASVGDRVTITCQASQSISSYLNWYQQKPGKAPKLLIYSASTLASGVPSRFSGSGSGTDFTLTISSLQPEDFATYYCQQGYSDSNIDNVFGGGTKVEIK
notes: also called Ab 25-71; clone 25-71
binding result [6]: no binding (tested: about 67 nM)
